In IntAct's records for PubMed 25487150:

What was measured:
pp11_schpo dis2 [1] = target: pp11_schpo dis2 (UniProt P13681)
pp11_schpo dis2 [2] = target: pp11_schpo dis2 (UniProt P13681); remark: listed apart in the source
pp1a_human PPP1CA = pp1a_human PPP1CA (UniProt P62136)
pp1b_human PPP1CB = pp1b_human PPP1CB (UniProt P62140)
pp1g_human PPP1CC = pp1g_human PPP1CC (UniProt P36873)
Sequence of pp1g_human PPP1CC (P36873 whole entry, looked up): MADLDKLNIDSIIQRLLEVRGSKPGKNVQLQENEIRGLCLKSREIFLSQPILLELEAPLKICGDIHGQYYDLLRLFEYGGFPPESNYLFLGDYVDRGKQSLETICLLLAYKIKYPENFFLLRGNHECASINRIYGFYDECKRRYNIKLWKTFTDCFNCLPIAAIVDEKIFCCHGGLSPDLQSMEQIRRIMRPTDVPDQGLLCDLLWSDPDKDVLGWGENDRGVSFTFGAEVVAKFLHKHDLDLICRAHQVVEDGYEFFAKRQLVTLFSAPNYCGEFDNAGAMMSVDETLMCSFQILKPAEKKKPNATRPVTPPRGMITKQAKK

Sequence of pp11_schpo dis2 (P13681 whole entry): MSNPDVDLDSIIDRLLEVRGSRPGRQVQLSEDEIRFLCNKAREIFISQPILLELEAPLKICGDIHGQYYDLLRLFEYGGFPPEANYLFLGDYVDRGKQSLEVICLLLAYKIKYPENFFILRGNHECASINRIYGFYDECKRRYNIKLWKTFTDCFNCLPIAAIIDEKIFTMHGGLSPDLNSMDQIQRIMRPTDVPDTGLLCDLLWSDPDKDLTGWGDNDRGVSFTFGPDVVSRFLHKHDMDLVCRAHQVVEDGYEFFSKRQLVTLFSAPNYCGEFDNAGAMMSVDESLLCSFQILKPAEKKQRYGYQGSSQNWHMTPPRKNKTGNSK
Sequence of Serine/threonine-protein phosphatase 2A 56 kDa regulatory subunit delta 1 isoform (Schizosaccharomyces pombe (strain ATCC 38366 / 972)), Q10428 G367A (Q10428 whole entry G367A, canonical isoform): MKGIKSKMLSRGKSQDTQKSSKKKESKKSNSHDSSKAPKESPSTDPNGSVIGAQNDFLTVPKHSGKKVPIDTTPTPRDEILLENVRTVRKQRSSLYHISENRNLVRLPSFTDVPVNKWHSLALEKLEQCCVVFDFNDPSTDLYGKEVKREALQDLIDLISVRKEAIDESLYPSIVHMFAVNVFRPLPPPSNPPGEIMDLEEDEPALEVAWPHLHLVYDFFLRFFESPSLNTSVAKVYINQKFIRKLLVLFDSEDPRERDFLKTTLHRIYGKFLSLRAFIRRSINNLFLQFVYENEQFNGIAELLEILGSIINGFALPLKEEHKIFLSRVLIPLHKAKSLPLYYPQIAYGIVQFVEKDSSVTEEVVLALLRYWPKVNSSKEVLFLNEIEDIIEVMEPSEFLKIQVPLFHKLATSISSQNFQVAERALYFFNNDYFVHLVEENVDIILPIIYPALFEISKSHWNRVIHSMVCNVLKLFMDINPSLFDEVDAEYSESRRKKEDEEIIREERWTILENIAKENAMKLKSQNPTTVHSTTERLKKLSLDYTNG
Sequence of Serine/threonine-protein phosphatase 2A 56 kDa regulatory subunit delta 1 isoform (Schizosaccharomyces pombe (strain ATCC 38366 / 972)), Q10428 G367V (Q10428 whole entry G367V, canonical isoform): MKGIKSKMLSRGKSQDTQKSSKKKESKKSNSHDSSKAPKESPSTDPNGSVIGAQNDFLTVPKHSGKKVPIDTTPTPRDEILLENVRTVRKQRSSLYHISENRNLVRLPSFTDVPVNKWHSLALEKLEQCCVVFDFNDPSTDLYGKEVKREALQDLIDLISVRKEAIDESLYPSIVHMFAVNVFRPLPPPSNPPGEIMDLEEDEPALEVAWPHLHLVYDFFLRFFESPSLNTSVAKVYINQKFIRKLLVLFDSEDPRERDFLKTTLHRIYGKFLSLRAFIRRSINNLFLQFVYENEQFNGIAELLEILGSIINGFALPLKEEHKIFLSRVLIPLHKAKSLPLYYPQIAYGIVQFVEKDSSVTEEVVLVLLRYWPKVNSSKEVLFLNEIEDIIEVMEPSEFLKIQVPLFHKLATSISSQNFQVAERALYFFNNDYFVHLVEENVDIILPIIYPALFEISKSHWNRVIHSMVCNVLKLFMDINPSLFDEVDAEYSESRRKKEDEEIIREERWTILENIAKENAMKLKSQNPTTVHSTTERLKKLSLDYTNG
Sequence of Serine/threonine-protein phosphatase 2A 56 kDa regulatory subunit delta 1 isoform (Schizosaccharomyces pombe (strain ATCC 38366 / 972)), Q10428 K379A;V381A;F383A (Q10428 whole entry K379A/V381A/F383A, canonical isoform): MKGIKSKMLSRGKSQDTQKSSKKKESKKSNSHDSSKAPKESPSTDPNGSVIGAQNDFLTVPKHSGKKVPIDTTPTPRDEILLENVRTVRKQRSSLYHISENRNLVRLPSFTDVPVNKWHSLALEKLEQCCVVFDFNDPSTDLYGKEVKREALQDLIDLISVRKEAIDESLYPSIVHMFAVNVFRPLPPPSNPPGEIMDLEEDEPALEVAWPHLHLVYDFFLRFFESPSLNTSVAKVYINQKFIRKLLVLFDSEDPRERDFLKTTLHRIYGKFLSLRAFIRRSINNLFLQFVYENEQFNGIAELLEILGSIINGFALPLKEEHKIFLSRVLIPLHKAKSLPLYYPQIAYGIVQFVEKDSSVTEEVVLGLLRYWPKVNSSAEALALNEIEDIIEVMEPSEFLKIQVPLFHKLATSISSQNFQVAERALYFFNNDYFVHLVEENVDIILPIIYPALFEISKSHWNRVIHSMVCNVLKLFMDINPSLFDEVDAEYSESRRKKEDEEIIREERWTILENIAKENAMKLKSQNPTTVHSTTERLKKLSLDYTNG
Sequence of Serine/threonine-protein phosphatase 2A 56 kDa regulatory subunit delta 1 isoform (Schizosaccharomyces pombe (strain ATCC 38366 / 972)), Q10428 G367A;V381A (Q10428 whole entry G367A/V381A, canonical isoform): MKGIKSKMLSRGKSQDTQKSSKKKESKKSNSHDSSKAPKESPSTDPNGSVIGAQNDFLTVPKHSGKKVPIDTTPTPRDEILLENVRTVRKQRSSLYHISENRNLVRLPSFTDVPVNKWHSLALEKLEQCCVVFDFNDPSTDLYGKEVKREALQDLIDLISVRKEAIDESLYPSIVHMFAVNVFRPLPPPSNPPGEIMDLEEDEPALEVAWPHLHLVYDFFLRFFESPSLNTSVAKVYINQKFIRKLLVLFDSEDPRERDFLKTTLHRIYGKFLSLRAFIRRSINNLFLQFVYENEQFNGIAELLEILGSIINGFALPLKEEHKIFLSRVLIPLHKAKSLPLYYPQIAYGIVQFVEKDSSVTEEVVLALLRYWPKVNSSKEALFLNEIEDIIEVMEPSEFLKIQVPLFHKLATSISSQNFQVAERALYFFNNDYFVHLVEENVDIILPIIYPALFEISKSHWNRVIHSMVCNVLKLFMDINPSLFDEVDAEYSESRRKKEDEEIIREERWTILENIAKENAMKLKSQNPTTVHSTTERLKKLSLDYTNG
Sequence of Serine/threonine-protein phosphatase 2A 56 kDa regulatory subunit delta 1 isoform (Schizosaccharomyces pombe (strain ATCC 38366 / 972)), Q10428 G367V;V381A (Q10428 whole entry G367V/V381A, canonical isoform): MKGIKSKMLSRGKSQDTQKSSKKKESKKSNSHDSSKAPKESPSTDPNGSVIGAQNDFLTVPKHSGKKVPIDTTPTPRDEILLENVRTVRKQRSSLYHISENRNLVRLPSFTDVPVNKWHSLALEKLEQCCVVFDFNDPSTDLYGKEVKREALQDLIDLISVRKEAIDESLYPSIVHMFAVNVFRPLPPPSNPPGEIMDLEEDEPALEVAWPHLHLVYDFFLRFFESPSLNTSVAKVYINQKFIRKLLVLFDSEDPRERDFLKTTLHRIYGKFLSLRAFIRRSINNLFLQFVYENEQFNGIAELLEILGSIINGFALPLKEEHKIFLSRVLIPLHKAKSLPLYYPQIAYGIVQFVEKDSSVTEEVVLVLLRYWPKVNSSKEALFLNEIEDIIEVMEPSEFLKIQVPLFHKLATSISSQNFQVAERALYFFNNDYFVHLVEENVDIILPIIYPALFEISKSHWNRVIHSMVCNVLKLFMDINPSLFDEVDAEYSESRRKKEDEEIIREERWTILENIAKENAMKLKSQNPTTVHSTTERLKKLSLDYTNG
Sequence of Serine/threonine-protein phosphatase 2A 56 kDa regulatory subunit delta 1 isoform (Schizosaccharomyces pombe (strain ATCC 38366 / 972)), Q10428 G367A;K379A;V381A;F383A (Q10428 whole entry G367A/K379A/V381A/F383A, canonical isoform): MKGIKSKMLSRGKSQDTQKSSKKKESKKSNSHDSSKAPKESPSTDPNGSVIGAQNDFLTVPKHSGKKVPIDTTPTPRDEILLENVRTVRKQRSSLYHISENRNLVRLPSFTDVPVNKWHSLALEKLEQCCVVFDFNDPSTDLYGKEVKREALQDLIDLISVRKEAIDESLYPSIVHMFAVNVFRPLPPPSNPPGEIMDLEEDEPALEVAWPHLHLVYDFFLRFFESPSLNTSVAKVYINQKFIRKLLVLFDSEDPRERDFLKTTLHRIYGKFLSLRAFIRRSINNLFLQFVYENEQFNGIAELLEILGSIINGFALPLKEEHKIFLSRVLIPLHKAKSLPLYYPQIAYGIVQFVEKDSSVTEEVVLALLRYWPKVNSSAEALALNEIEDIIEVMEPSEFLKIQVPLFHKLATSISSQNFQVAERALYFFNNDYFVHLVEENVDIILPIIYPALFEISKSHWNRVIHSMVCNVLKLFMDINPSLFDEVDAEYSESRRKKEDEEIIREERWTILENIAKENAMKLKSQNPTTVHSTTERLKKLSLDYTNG
Sequence of Serine/threonine-protein phosphatase 2A 56 kDa regulatory subunit delta 1 isoform (Schizosaccharomyces pombe (strain ATCC 38366 / 972)), Q10428 G367V;K379A;V381A;F383A (Q10428 whole entry G367V/K379A/V381A/F383A, canonical isoform): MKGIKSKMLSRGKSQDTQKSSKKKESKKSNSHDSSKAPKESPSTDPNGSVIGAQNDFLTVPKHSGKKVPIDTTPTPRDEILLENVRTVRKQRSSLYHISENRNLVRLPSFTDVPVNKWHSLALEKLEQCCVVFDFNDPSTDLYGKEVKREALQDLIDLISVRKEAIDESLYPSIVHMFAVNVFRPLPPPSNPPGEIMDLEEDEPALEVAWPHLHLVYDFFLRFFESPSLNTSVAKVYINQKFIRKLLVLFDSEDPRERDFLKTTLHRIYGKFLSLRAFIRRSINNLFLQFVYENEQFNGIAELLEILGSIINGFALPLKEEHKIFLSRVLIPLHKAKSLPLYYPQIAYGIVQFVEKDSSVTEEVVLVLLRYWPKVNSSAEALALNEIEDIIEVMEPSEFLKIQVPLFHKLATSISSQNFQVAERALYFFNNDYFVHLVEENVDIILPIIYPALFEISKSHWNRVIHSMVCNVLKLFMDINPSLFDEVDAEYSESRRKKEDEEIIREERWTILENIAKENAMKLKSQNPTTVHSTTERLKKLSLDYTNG
Sequence of pp1a_human PPP1CA (P62136 whole entry): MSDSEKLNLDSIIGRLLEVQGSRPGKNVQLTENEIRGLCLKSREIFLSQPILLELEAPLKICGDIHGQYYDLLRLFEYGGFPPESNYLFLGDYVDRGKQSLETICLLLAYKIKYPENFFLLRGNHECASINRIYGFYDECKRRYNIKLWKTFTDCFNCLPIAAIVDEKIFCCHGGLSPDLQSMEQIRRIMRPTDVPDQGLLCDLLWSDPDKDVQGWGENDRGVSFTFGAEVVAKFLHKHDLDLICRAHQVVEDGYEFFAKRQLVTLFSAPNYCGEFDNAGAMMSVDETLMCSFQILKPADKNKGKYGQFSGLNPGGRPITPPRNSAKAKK

effect of a mutation on the interaction (pp11_schpo dis2 [1]) | effect of a mutation on the interaction (pp11_schpo dis2 [2]) | Substance | other results
disrupting interaction strength | decreasing interaction strength | Serine/threonine-protein phosphatase 2A 56 kDa regulatory subunit delta 1 isoform (Schizosaccharomyces pombe (strain ATCC 38366 / 972)), Q10428 G367A;V381A | 
 | disrupting interaction strength | Serine/threonine-protein phosphatase 2A 56 kDa regulatory subunit delta 1 isoform (Schizosaccharomyces pombe (strain ATCC 38366 / 972)), Q10428 G367V;K379A;V381A;F383A | 
 | disrupting interaction strength | Serine/threonine-protein phosphatase 2A 56 kDa regulatory subunit delta 1 isoform (Schizosaccharomyces pombe (strain ATCC 38366 / 972)), Q10428 S378D | 
 | decreasing interaction strength | Serine/threonine-protein phosphatase 2A 56 kDa regulatory subunit delta 1 isoform (Schizosaccharomyces pombe (strain ATCC 38366 / 972)), Q10428 G367V;V381A | 
disrupting interaction strength | decreasing interaction strength | Serine/threonine-protein phosphatase 2A 56 kDa regulatory subunit delta 1 isoform (Schizosaccharomyces pombe (strain ATCC 38366 / 972)), Q10428 G367A | 
 |  | Serine/threonine-protein phosphatase 2A 56 kDa regulatory subunit gamma isoform (Homo sapiens) (from UniProt Q13362) L289A;L290A;V302A;F304A | effect of a mutation on the interaction (pp1a_human PPP1CA): disrupting interaction strength; effect of a mutation on the interaction (pp1b_human PPP1CB): disrupting interaction strength; effect of a mutation on the interaction (pp1g_human PPP1CC): disrupting interaction strength
disrupting interaction strength | decreasing interaction strength | Serine/threonine-protein phosphatase 2A 56 kDa regulatory subunit delta 1 isoform (Schizosaccharomyces pombe (strain ATCC 38366 / 972)), Q10428 K379A;V381A;F383A | 
disrupting interaction strength | decreasing interaction strength | Serine/threonine-protein phosphatase 2A 56 kDa regulatory subunit delta 1 isoform (Schizosaccharomyces pombe (strain ATCC 38366 / 972)), Q10428 G367V | 
 | disrupting interaction strength | Serine/threonine-protein phosphatase 2A 56 kDa regulatory subunit delta 1 isoform (Schizosaccharomyces pombe (strain ATCC 38366 / 972)), Q10428 G367A;K379A;V381A;F383A | 
